In the nanobody polyreactivity screen of Harvey et al. (2022):

Assay: yeast display, Sf9 membrane polyspecificity reagent, FACS + sequencing; frameworks hold sequencing errors
Method in brief: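 Nanobodies came from a synthetic yeast display library in Saccharomyces cerevisiae BJ5465, induced with galactose for 36–48 hours and stained for 1 hour at 4 °C with 10% biotinylated, detergent-solubilized Sf9 membrane reagent. Cells were enriched on streptavidin microbeads and then FACS-sorted, with low and high (top ~1%) gates set on anti-HA fluorescence for expression and streptavidin fluorescence for reagent binding. Each polyreactivity label reflects the gate a clone came from. Genes were amplified by colony PCR, sequenced by MiSeq 2 × 250 and filtered by CDR length.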

| Sequence | polyreactivity (PSR sort gate) |
| --- | --- |
| QVQLVEAGGGLVQAGVSLRLSCAASGIIFGSYAMGWYRQAPGKERELVATISYDGGSTYYADSVKGRFTISRDNAKNTVYLQMKSLKPDDTAVSYCAAVYQSWFGLRSYYYWGQGTQVTVSS | high polyreactivity |
| QVQLVEAGGGLVQAGVSLRLSCAASGLTFVPNAMGWYRQAPGKERELVAAISNNGGRTYYADSVKGRFTISRDNAKNTVYLQMNSLKPEDTAVYYCAKYLSPGERHSYDYWGQGTQVTVSS | high polyreactivity |
| QVQLVEAGRGLVHAGGSLRLSCDPSGLTFSRYAMGWYRPAPGKESELVPAISSRGGTTYYADSVKGRFTISRDYAKNTVYLQMYSMKPEDTAVYYCAAGYITWGSGNWVVTPYDVWGQGTQVTVSS | high polyreactivity |
| QVQLVEKGGGLVQAGGSLRLICAASGYIIWPNAMGWYRQAPGKERELVASITRAGSTNYADSVKGRFTISRDNAKNTVYLQMNSLKPEDTAVYYSAAYFWGGYNYWGQGTQVTVSS | low polyreactivity |
| QVQLVEKRGGLVQAGGILRLSCAASGCILVGYAMGWSRQAPGKERELVAAINYSGGSTNYADSVKGRFTISLDNAKNTVYLQMISLKPEDTAVYYCAARSTARYGYWGQGTQVTVSS | low polyreactivity |
| QVQLVELGGGLVQAGGSLRLSCAASGGTFPRYAMGWYRQAPGKERELVAAITSRGDRTYYADSVKGRFTISRDNAKNTVYLQMNSLKPEDTAVYYCAARLYYSSYGRVKMDYWGQGTQVTVSS | high polyreactivity |
| QVQLVESAAGLVQAGGSLRLSCAASGFIFQYYAMGWYRQAPGKERELVAAINRGGGTHYADSVKGRFTISRDNAKNTVYLQMNSLKREDTAVYYCNKVYYWPGSRPSRYEYWGQGTQVTVSS | low polyreactivity |
| QVQLVESAAGLVQAGGSLRLSCDASGSIFYSYAMGWYRQAPGKERELVAAITDSGDSTYYADCVKGRFTISRDNAKNTVYLQMNSLKPEDTAVYYCAAGFYPYYYWGQGTQVTVSS | low polyreactivity |
| QVQLVESAARLVQAGASLPLSCPASGRIFYTNAMGCYRQAPGKERELVAVMSWGGDTTYYADSVKGRFTISRDNATNTVYLQMNSLKPEDSAVYYCNAYSGPTYEIYDSWGLGTQVTVSS | low polyreactivity |
| QVQLVESAGCLVQAAASLRLSCSASGRTFYNYAMGWYRQAPGKEWELVASIRKNGGSTYYADSVKGRFTISRDNAKNTVYFQMNRLKPEDTAVYYCAAGRTVVTGSYYWGQGTQVTVSS | high polyreactivity |
| QVQLVESAGCLVQAGASLRLSCAASGRIISRNAMGWYRQAPGKERELVAAITWRGGSTYYADSVKGRFTISRDNAKNTVYLQMNSLKPEDTAVYYCNRDYRQYGYAYSGRYYWGQGTQVTVSS | high polyreactivity |
| QVQLVESAGCLVQAGGSLRLSCAASGSTIYRYAMGWYRQAPGKERELVAAITRTGGSTYADSVKGRFTISRDNAKNSVFLQMNSLKPEDTAVFYCAVQRYYVSSISPFYYWGQGTQVTVSS | low polyreactivity |
| QVQLVESAGGFVQAGGSLRLSCAASGRIYQQNGLRWYRQAPGKERELVAGINSGVGTNYADSVKGRFTISRDNAKNTVYLQMNSLKPEDTAVFYCAKSQPSYSGDRDYWGQGTQVTVSS | low polyreactivity |
| QVQLVESAGGFVQAGGSLRLSCAASGSIFTINAMGWYTQAPGKERELVAGIRWRGGSTYYADSVKGRVTISRDNAKNTVYFQMNSLKPEDTAVYYCNTRCLIRKFDYWGQGTQVTVSS | high polyreactivity |
| QVQLVESAGGIVQAGGSLRLSCAASGFTFSRYAKGWNRPEPGKEREWVAAMTSSGGSTYYADSVKGRFTISRDNAKNTVYLQMNSLKPEDTAVYYCNARASGRTYRVDYWGQGTQVTVSS | high polyreactivity |
| QVQLVESAGGLDQARGSLRLSCAASGFTFIRYAMGWYRQAPGKESELVATITRSGGSTYYADSVKGRFTISRDNAKNTVYLQMNSLKPEDTAVYYCAKRGTLGSYYYWGQGTQVTVSS | high polyreactivity |

| Sequence | polyreactivity (PSR sort gate) |
| --- | --- |
| QVQLVESAGGLLQAGGTLRLICAASGRIFTNYAMGWYRQAPGKERELVAAINWSGSRTFYADSVMGRFTISRDNAKYTVYLQLNSLKPEDTAVYSCAADALRKPKIALYDYWGQGTQVTVSS | high polyreactivity |
| QVQLVESAGGLVHAGGSLRLSCAASGFIFWYYAMGWDRQSPGKERELVASISRGGDSTYYADSVKGRFTISRDNAKNTVYVQMNSLKPVDTAVYYCNARGRYRKSERRAFDYWGQGTQVTVSS | high polyreactivity |
| QVQLVESAGGLVHAGGSLRLSCAASGFNFGFNAMGWDRQAPGKERELVAVISARGGRTYYADSVKGRFTISRDNAKNSVYLQMNSLKPEDSAVYYSAADDFFRYFFTHWVGDDYWGQGTQVSVSS | low polyreactivity |
| QVQLVESAGGLVHAGGSLRLSCADSGSTIGDNAMGWYRQAPGKEREFVASISWSGASTYYADSVKGRFTISRDNAKNTVYLQMNSLKPEDTAVYFCAVYYSYYSHLYHLLFYYWGQATQVTVSS | low polyreactivity |
| QVQLVESAGGLVHAGGSLSLSCAASAILGNNAMGWYRQAPRKQRELVAAISARGGRTYYADSVKGRFTISRDNAKNTVYLQMNSLKPEDTAVYYCATLETSGVNYWGQGTQVTVSS | high polyreactivity |
| QVQLVESAGGLVQAGASLRLSCAASGRIFVRNAMGWYRQAPGKEREMVADITNGGSTNYADSVKGRFTISRDNAKNTVYLQKNRLNPEDTAVYYCNADGFVYDLRARPGWVDYWGQGTQVTVSS | low polyreactivity |
| QVQLVESAGGLVQAGGILRLSCAASGSIFVGYDMGWSRQAPGKERELVAAITSSGGGSTYYADSVKGRFTISRDNAKNTVYLQMNSLKPEDTAVYYCAARTSLWWFLKYDYWGQGTQVTVSS | low polyreactivity |
| QVQLVESAGGLVQAGGRLRLSCAASGFTFVYYVMGWYRQAPGKERELVAAISNSGGSTYYADSVKGRFTISRDNAKNSVYLEMNSLKPEDTAVYYCAAPPGGGKYRGYYYWGQGTQVTVSS | high polyreactivity |
| QVQLVESAGGLVQAGGRLRLSCAASGITISYYAMGWYRQAPGKERELVASISWRGGGTYYADSVKGRFTISRDNAKNTVYLQMNSVKPEDTAVYYCAADEKLYITRYDYWGQGTQVTVSS | low polyreactivity |
| QVQLVESAGGLVQAGGRLRLSCAASGRTFTYYAMGWYRQAPGKERELVAAISFSGGRTYYADSVKGRFTISRDYAKNTVYLQMNSLKPEDTAVYYCAAENYYTRYRDRDYWGQGTQVTVSS | high polyreactivity |
| QVQLVESAGGLVQAGGRLRVSCAASGFIFLYYPMGWYRKAPGKEREFVAAISWSDGNTYYADSVKGRFTISRDTAKNTDYLQMNSLKREDTAVYYCNARDADAWASGYDYWGQGTQLTVSS | low polyreactivity |
| QVQLVESAGGLVQAGGSHRLSCAASASIFDGYAMGWYRQAPGKEREVVAAIRRSGVDTYYADSVKGRFTISRDNAKTTVYLQMNSLKPEDTAVDYCAADSYPSPNFEDNYWRQGTQVTVSS | low polyreactivity |
| QVQLVESAGGLVQAGGSHRLSCAPSGRIFGGNAMGWYRRAPGKERELVAGISRRGGSTYYADSVKGRFTITRDNAKNTVHLQMNSLKPEDTAVYYCNAYYRYSVFAEKYDYWGEGTQVTVSS | high polyreactivity |
| QVQLVESAGGLVQAGGSLRIRCAASVSTFGVYALGWYRQAPGKERELVAAISSSTGSTYYADSVKGRFTISRDNAKNTVYLQMNSLKPEDTGVYYCAAAGYGKVRGDYWGLGTQVTVSS | low polyreactivity |
| QVQLVESAGGLVQAGGSLRISCAASGSIFYYYAMGWYRQAPGKERELLAAIDSGGSTYYADSVKGRFTISRDNAKNTVYLQMNSLKPEDTAVYYCAADTYWFVYYGYDYWGQGTQVTVSS | low polyreactivity |
| QVQLVESAGGLVQAGGSLRLMCAASGNTLSWYALGWYRQAPGKERELVAVITSGGSTNYADSVKGRFTISRDYAKNTVYLQMNSLKPEDTAVYYCNRRPYGFDEFDYWGQGTQVTVSS | low polyreactivity |
